# B1: phytase: Phytase from A. niger commercialized under the trade name NATUPHOS; liquid (5000 L) and granulated (5000 G) formulations, 5000 FTU/g (protein, UniProt P34752 24-467, looked up)
# Phytase A: ASRNQSSCDTVDQGYQCFSETSHLWGQYAPFFSLANESVISPEVPAGCRVTFAQVLSRHGARYPTDSKGKKYSALIEEIQQNATTFDGKYAFLKTYNYSLGADDLTPFGEQELVNSGIKFYQRYESLTRNIVPFIRSSGSSRVIASGKKFIEGFQSTKLKDPRAQPGQSSPKIDVVISEASSSNNTLDPGTCTVFEDSELADTVEANFTATFVPSIRQRLENDLSGVTLTDTEVTYLMDMCSFDTISTSTVDTKLSPFCDLFTHDEWINYDYLQSLKKYYGHGAGNPLGPTQGVGYANELIARLTHSPVHDDTSSNHTLDSSPATFPLNSTLYADFSHDNGIISILFALGLYNGTKPLSTTTVENITQTDGFSSAWTVPFASRLYVEMMQCQAEQEPLVRVLVNDRVVPLHGCPVDALGRCTRDSFVRGLSFARSGGDWAECFA
# Key:
# [1] = Fe retained in sedimented fraction of suspended salt (AES/ICP); type: physicochemical
# Experimental: The prepared FePA as described in Example 3 was suspended either at pH 2 or at pH 5,5 in a concentration of 35.8 g per liter. After sedimentation, the supernatant fraction of both suspensions was analysed by AES/ICP.
# Subsequently, the suspension of pH=2 was centrifuged 10 minutes at 6000 rpm at room temperature. The pellet was dissolved in 15 g concentrated […] and the solution was analyzed by AES/ICP.
# This procedure was repeated with iron phosphate. This salt was prepared in the same way as the preparation of the essential cation phytates: the cation was dissolved as its sulfate, and subsequently precipitated with a basic solution of sodium phosphate. The precipitate was collected and washed.
# [2] = Mineral partitioning in ground Cruesli with added FePA and/or phytase (AES-ICP); type: biochemical; settings: phytase 115 FTU/g
# Experimental: 0.1 g of this preparation was added to 20 g ground Cruesli™ (Quaker Foods & Beverages). […] […] The suspension was incubated at 37° C. with constant stirring for 4 h, and subsequently centrifuged for 20 minutes at 16000 rpm and 4° C. After centrifugation, the sediment and the supernatant fraction were separated, weighed and analyzed by AES-ICP to determine their phosphorus, calcium, magnesium, zinc and iron content. Control suspensions without phytase activity (but with the FePA), and without both FePA and phytase underwent the same procedure.
# [3] = Phytase activity on different substrates (method of Engelen et al.); type: biochemical; settings: 37° C.; for Activity: incubation 60 minutes
# Experimental: The activity of Aspergillus niger phytase (NATUPHOS™) was tested against NaPA and CaPA. The influence of the metal in the phytate source on the phytase activity (37° C. using an incubation time of 60 minutes) was investigated. The rate of phytate hydrolysis was determined using the analytical method described by Engelen et al., J. AOAC Int. 77:760-764 (1994).
# [4] = Mineral partitioning in ground Cruesli fractions with added phytase activity (AES-ICP); type: biochemical
# Experimental: Various phytase preparations are commercially available. We have used the liquid formulation NATUPHOS™ 5000 L (DSM, Delft, The Netherlands). Again we used ground Cruesli™ (Quaker Foods & Beverages) as model phytate-containing foodstuff. About 20 grams ground Cruesli™ was suspended in two separate lots of 40 g acetate buffer (0.25 M, pH 5.5, 37° C.). To one of the lots, 1.2 g of the phytase preparation was added, to achieve a final activity of 100 FTU/g. The suspensions were incubated at 37° C. with constant stirring for 1,5 h, and subsequently centrifuged for 20 minutes at 16000 rpm and 4° C. After centrifugation the sediment and the supernatant fraction were separated, weighed and analyzed by AES-ICP to determine their phosphorus, calcium, magnesium and zinc content.
# The procedure for this example was the same as for Example 6, but a lower final phytase activity in the incubation was used: 1 FTU/g, instead of 100. The incubation time was lowered to 1 hour.
# The procedure for this example was the same as for Example 7, but at a lower pH value and a longer incubation time. This was done to simulate the conditions existant in the stomach. We looked specifically at iron, because iron salts are believed to be particularly poorly soluble at higher pH values, making breakdown in the stomach an attractive option. Iron concentrations were determined by AES-ICP.
# [5] = characteristic stomach pH-values; cited from earlier work
# [6] = incubation pH 2, 37° C., 4 h, where added: Fe-phytate 450 mg/kg
# [7] = incubation pH <1, where added: Fe-phytate 450 mg/kg
# [8] = pH 2, 37° C., 2 h, phytase 1 FTU/g
# [9] = pH 5.5, 37° C., 1 h, phytase 1 FTU/g
# [10] = pH 5.5, 37° C., 1.5 h, phytase 100 FTU/g
# [11] = incubation pH 5.5, where added: Fe-phytate 450 mg/kg
molecule,measurement,setting,value
iron phosphate [reference compound],Fe retained in the sedimented fraction,[1]; suspended at pH 2,less than 10%
same,Fe retained in the sedimented fraction,[1]; suspended at pH 5.5,more than 90%
Iron-phytate [Fe-phytate],"Percentage of mineral in supernatant fraction, Iron",[2]; [6],10%
same,"Percentage of mineral in supernatant fraction, Phosphorus",[2]; [6],9.6%
same,"Percentage of mineral in supernatant fraction, Iron",[2]; [7],23%
same,"Percentage of mineral in supernatant fraction, Phosphorus",[2]; [7],68%
same,Fe retained in the sedimented fraction,[1]; suspended at pH 2,more than 90%
same,Fe retained in the sedimented fraction,[1]; suspended at pH 5.5,more than 90%
B1,activity of phytase on sodium and on calcium phytate compared,[3]; 60 minutes,equivalent
same,Activity,[3]; substrate 4.6 mM calcium phytate,3.12 * 10^5 FTU/g
same,Activity,[3]; substrate 5.1 mM calcium phytate,3.07 * 10^5 FTU/g
same,Activity,[3]; substrate 5.1 mM sodium phytate,3.06 * 10^5 FTU/g
same,Activity,[3]; substrate 5.6 mM calcium phytate,3.10 * 10^5 FTU/g
same,"% of mineral in supernatant fraction, Iron",[4]; [8],14%
same,"% of mineral in supernatant fraction, Phosphorus",[4]; [8],33%
same,"% of mineral in supernatant fraction, Calcium",[4]; [9],30%
same,"% of mineral in supernatant fraction, Magnesium",[4]; [9],36%
same,"% of mineral in supernatant fraction, Phosphorus",[4]; [9],30%
same,"% of mineral in supernatant fraction, Zinc",[4]; [9],22%
same,"% of mineral in supernatant fraction, Calcium",[4]; [10],40%
same,"% of mineral in supernatant fraction, Magnesium",[4]; [10],49%
same,"% of mineral in supernatant fraction, Phosphorus",[4]; [10],42%
same,"% of mineral in supernatant fraction, Zinc",[4]; [10],19%
same,"Percentage of mineral in supernatant fraction, Iron",[2]; [11],6%
same,"Percentage of mineral in supernatant fraction, Phosphorus",[2]; [11],45%
same,"residual activity, % of optimal activity",[5],about 50%
